Experimental data taken from patent US20100215651A1 (GLENMARK PHARMACEUTICALS S A, published 2010).
Substitutions are numbered along the chain they refer to. Names and notes keep the numbering of the source.

B1: VH2VL40 (antibody, V domains shown)
VH: EVQLVESGGGVVQPGRSLRLSCAASGVSLPDYGVSWVRQAPGKGLEWVAVIWGSETTYYNSALKSRFTISRDNSKNTLYLQMNSLKTEDTAVYYCTTHYYYGGSYAMDYWGQGTLVTVSS
VL: DIVMTQTPSSLSASVGDRVTITCRASQDISKYLNWYQQKPGKVPNLLIYHTSRLHSGVPSRFSGSGSGTEFTLTISSLQPEDFATYYCQQGNTLPYTFGGGTKVEIKR
B2: VH16 Y32F/R94K/VL43 V3Q/T7S/P44I/N92A (antibody, human IgG1, name in Kabat numbering, V domains shown)
VH: B1 VH with E1Q, E6Q, Y32F, K86R, T87A, T96A, T97K
VL: B1 VL with V3Q, T7S, V43A, P44I, N45K, E70D, N92A, G100P, E105D
notes: Full-length human IgG1/kappa; substitutions in Kabat numbering
B3: VH20/VL44 (antibody, human IgG1, V domains shown)
VH: QVQLVQSGGGLVQPGGSLRLSCVASGVSLPDYGVSWVRQAPGKGLEWVSVIWGSETTYYNSALKSRFTISRDNAKNSLYLQMNSLRAEDTAVYYCARHYYYGGSYAMDYWGQGTLVTVSS
VL: B1 VL with T7S, L11M, V15I, V43A, G100Q, V104L
B4: VH5VL39 (antibody, V domains shown)
VH: B3 VH with Q1E, Q6E, Q13K, V23A, V37I, N83D, A87V, R97G
VL: B1 VL with T7S, S10T, V43A, N45K, E81D, G100Q
B5: VH16-G42R/VL43-Y87F (antibody, human IgG1, name in Kabat numbering, V domains shown)
VH: B1 VH with E1Q, E6Q, G42R, K86R, T87A, T96A, T97R
VL: B1 VL with V43A, N45K, E70D, Y87F, G100P, E105D
notes: substitutions in Kabat numbering
B6: VH16 Y32F/R94K/VL43 V3Q/T7S/Y32F/P44I/N92A (antibody, human IgG1, name in Kabat numbering, V domains shown)
VH: B1 VH with E1Q, E6Q, Y32F, K86R, T87A, T96A, T97K
VL: B1 VL with V3Q, T7S, Y32F, V43A, P44I, N45K, E70D, N92A, G100P, E105D
notes: as for B2
B7: VH20/VL40 (antibody, human IgG1, V domains shown)
VH: B3 VH
VL: B1 VL
B8: VH20/VL43 (antibody, human IgG1, V domains shown)
VH: B3 VH
VL: B1 VL with V43A, N45K, E70D, G100P, E105D
B9: VH16-R71K/VL43-F71Y (antibody, human IgG1, name in Kabat numbering, V domains shown)
VH: B1 VH with E1Q, E6Q, R71K, K86R, T87A, T96A, T97R
VL: B1 VL with V43A, N45K, E70D, F71Y, G100P, E105D
notes: as for B5
B10: VH20/VL39 (antibody, human IgG1, V domains shown)
VH: B3 VH
VL: B1 VL with T7S, S10T, V43A, N45K, E81D, G100Q
B11: VH16/VL43-P44V (antibody, human IgG1, V domains shown)
VH: B1 VH with E1Q, E6Q, K86R, T87A, T96A, T97R
VL: B1 VL with V43A, P44V, N45K, E70D, G100P, E105D
notes: as for B5
B12: VH16-F67L/VL43-P44V (antibody, human IgG1, name in Kabat numbering, V domains shown)
VH: B1 VH with E1Q, E6Q, F67L, K86R, T87A, T96A, T97R
VL: B1 VL with V43A, P44V, N45K, E70D, G100P, E105D
notes: as for B5
B13: VH16-L78V/VL43-P44V (antibody, human IgG1, name in Kabat numbering, V domains shown)
VH: B1 VH with E1Q, E6Q, L78V, K86R, T87A, T96A, T97R
VL: B1 VL with V43A, P44V, N45K, E70D, G100P, E105D
notes: as for B5
B14: VH16/VL43-F71Y (antibody, human IgG1, V domains shown)
VH: B1 VH with E1Q, E6Q, K86R, T87A, T96A, T97R
VL: B1 VL with V43A, N45K, E70D, F71Y, G100P, E105D
notes: as for B5
B15: VH16/VL39 (antibody, human IgG1, V domains shown)
VH: B1 VH with E1Q, E6Q, K86R, T87A, T96A, T97R
VL: B1 VL with T7S, S10T, V43A, N45K, E81D, G100Q
B16: VH16/VL43-Y87F (antibody, human IgG1, V domains shown)
VH: B1 VH with E1Q, E6Q, K86R, T87A, T96A, T97R
VL: B1 VL with V43A, N45K, E70D, Y87F, G100P, E105D
notes: as for B5
B17: VH16-G42R/VL43-F71Y (antibody, human IgG1, name in Kabat numbering, V domains shown)
VH: B1 VH with E1Q, E6Q, G42R, K86R, T87A, T96A, T97R
VL: B1 VL with V43A, N45K, E70D, F71Y, G100P, E105D
notes: as for B5
B18: VH16/VL44 (antibody, human IgG1, V domains shown)
VH: B1 VH with E1Q, E6Q, K86R, T87A, T96A, T97R
VL: B1 VL with T7S, L11M, V15I, V43A, G100Q, V104L
B19: VH16/VL40 (antibody, human IgG1, V domains shown)
VH: B1 VH with E1Q, E6Q, K86R, T87A, T96A, T97R
VL: B1 VL
B20: VH16-R94K/VL43-Y87F (antibody, human IgG1, V domains shown)
VH: B1 VH with E1Q, E6Q, K86R, T87A, T96A, T97K
VL: B1 VL with V43A, N45K, E70D, Y87F, G100P, E105D
notes: as for B2
B21: VH16-R71K/VL43-Y87F (antibody, human IgG1, name in Kabat numbering, V domains shown)
VH: B1 VH with E1Q, E6Q, R71K, K86R, T87A, T96A, T97R
VL: B1 VL with V43A, N45K, E70D, Y87F, G100P, E105D
notes: as for B5
B22: VH16 R94K VL43 Y32F (antibody, human IgG1, V domains shown)
VH: B1 VH with E1Q, E6Q, K86R, T87A, T96A, T97K
VL: B1 VL with Y32F, V43A, N45K, E70D, G100P, E105D
notes: as for B2
B23: VH16-R94K/VL43-P44V (antibody, human IgG1, V domains shown)
VH: B1 VH with E1Q, E6Q, K86R, T87A, T96A, T97K
VL: B1 VL with V43A, P44V, N45K, E70D, G100P, E105D
notes: as for B2
B24: VH16-G42R/VL43 (antibody, human IgG1, name in Kabat numbering, V domains shown)
VH: B1 VH with E1Q, E6Q, G42R, K86R, T87A, T96A, T97R
VL: B1 VL with V43A, N45K, E70D, G100P, E105D
notes: as for B5
B25: VH16 R94K/Y97F/VL43 V3Q/T7S/Y32F/P44I/N92A (antibody, human IgG1, name in Kabat numbering, V domains shown)
VH: B1 VH with E1Q, E6Q, K86R, T87A, T96A, T97K, Y100F
VL: B1 VL with V3Q, T7S, Y32F, V43A, P44I, N45K, E70D, N92A, G100P, E105D
notes: as for B2
B26: VH16 Y32F/R94K/Y97F/VL43 V3Q/T7S/P44I/N92A (antibody, human IgG1, name in Kabat numbering, V domains shown)
VH: B1 VH with E1Q, E6Q, Y32F, K86R, T87A, T96A, T97K, Y100F
VL: B1 VL with V3Q, T7S, V43A, P44I, N45K, E70D, N92A, G100P, E105D
notes: as for B2
B27: VH16 R94K/VL43 V3Q/T7S/N92A (antibody, human IgG1)
heavy: not shown
VL: DIQMTQSPSSLSASVGDRVTITCRASQDISKYLNWYQQKPGKAPKLLIYHTSRLHSGVPSRFSGSGSGTDFTLTISSLQPEDFATYYCQQGATLPYTFGPGTKVDIKRTVAA
notes: as for B2
B28: VH16-R94K/VL43-F71Y (antibody, human IgG1, V domains shown)
VH: B1 VH with E1Q, E6Q, K86R, T87A, T96A, T97K
VL: B1 VL with V43A, N45K, E70D, F71Y, G100P, E105D
notes: as for B2
B29: VH16 R94K/VL43 V3Q/T7S/Y32F/N92A (antibody, human IgG1, V domains shown)
VH: B1 VH with E1Q, E6Q, K86R, T87A, T96A, T97K
VL: B1 VL with V3Q, T7S, Y32F, V43A, N45K, E70D, N92A, G100P, E105D
notes: as for B2
B30: VH16-F67L/VL43 (antibody, human IgG1, name in Kabat numbering, V domains shown)
VH: B1 VH with E1Q, E6Q, F67L, K86R, T87A, T96A, T97R
VL: B1 VL with V43A, N45K, E70D, G100P, E105D
notes: as for B5
B31: VH5VL43 (antibody, V domains shown)
VH: B3 VH with Q1E, Q6E, Q13K, V23A, V37I, N83D, A87V, R97G
VL: B1 VL with V43A, N45K, E70D, G100P, E105D

Key:
human CD19 [1] = target: T1, human CD19 (human, UniProt P15391 20-556); experiment: flow cytometry on Raji cells, PE-labelled anti-human secondary antibody, MFI against antibody concentration
T1 construct: CD19 as expressed on Raji, NALM-6 and SU-DHL-6 cells; also called CD19 antigen; B-cell surface antigen B4
T1 sequence: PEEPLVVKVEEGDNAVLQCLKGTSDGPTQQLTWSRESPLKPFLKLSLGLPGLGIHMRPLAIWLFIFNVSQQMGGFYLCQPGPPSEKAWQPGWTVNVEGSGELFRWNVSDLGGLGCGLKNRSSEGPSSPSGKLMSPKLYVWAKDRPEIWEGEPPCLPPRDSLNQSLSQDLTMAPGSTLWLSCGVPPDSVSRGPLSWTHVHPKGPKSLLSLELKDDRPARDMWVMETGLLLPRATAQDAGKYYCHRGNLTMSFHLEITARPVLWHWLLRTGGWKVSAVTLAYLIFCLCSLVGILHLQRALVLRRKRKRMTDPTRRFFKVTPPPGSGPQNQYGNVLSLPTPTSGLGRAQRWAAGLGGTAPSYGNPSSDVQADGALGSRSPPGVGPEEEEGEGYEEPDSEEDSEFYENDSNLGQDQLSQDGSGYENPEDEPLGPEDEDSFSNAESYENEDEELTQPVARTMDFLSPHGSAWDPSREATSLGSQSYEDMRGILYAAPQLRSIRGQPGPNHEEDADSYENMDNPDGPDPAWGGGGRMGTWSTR
Method: These immunoglobulins were assessed for antigen-binding affinity by half-maximal binding assays on B-cell lymphoma cell-lines (FACS) and compared to a chimeric version of FMC63 (this was to standardized level of staining from the anti-human Fc PE-labeled detection-antibody, as described in Example 2).
(§1) Binding of the CD19 humanized monoclonal antibodies by flow cytometry to Raji tumor cells (human Burkitt lymphoma, DSMZ ACC319), NALM-6 (human B cell precursor leukemia, DSMZ ACC128) and SU-DHL-6 (human B cell lymphoma, DSMZ ACC572) (all cell lines from DSMZ Braunschweig, Deutschland) was assessed. Cells were incubated with serial dilutions of each humanized monoclonal antibody. An irrelevant human IgG1 was used as a negative control. The cells were washed and detected by a phycoerythrin-labeled (PE) anti-human secondary antibody (eBioscience, CA, USA) and analyzed by flow cytometry. […] From MFI versus antibody concentration curves, Mid-Point Fluorescence (MPF) value for each anti-CD19 humanized antibody was calculated using the software GraphPad Prism 5 (CA, USA).

human CD19 [2] = target: T1, human CD19; experiment: flow cytometry, Raji cells, MPF vs chimeric FMC63
Method: as §1

human CD19 [3] = target: T1, human CD19; experiment: flow cytometry, NALM-6 cells, MPF vs chimeric FMC63
Method: as §1

Binder	binding result (human CD19 [1])	relative MPF (% of chimeric FMC63) (human CD19 [2])	relative MPF (% of chimeric FMC63) (human CD19 [3])	other results
B1	no binding (tested: about 10 ug/ml (Log(ug/ml) about 1))			
B2		133%		
B3	binds			
B4	no binding (tested: about 10 ug/ml (Log(ug/ml) about 1))			
B5		8.43%	3.65%	
B6				binding result (human CD19 [2]): binds
B7	binds			
B8	binds			
B9			2.67%	
B10	binds			
B11		9.72%	6.05%	
B12			2.37%	
B13		25.9%	10.9%	
B14		11.3%		
B15	binds			
B16		10%		

Binder	binding result (human CD19 [1])	relative MPF (% of chimeric FMC63) (human CD19 [2])	relative MPF (% of chimeric FMC63) (human CD19 [3])	other results
B17			3.97%	
B18	binds			
B19	binds			
B20		31.8%		
B21		4.19%		
B22		39.5%		
B23		52.9%	32.9%	
B24			3.48%	
B25				binding result (human CD19 [2]): binds
B26				binding result (human CD19 [2]): binds
B27		18.2%		
B28		41.8%	23.5%	
B29				binding result (human CD19 [2]): binds
B30			2.4%	
B31	no binding (tested: about 10 ug/ml (Log(ug/ml) about 1))			
